The test system of this series is cytochrome P-450 reductase from P. somniferum cell suspension cultures. Particulars: for Km: read-out: Km value, purified P. somniferum reductase (mixture of two isozymes). On the procedure: Purification and sequence analysis. Cells were harvested from seven-day-old suspension cultures of P. somniferum by vacuum filtration, immediately shock frozen and stored at −20° C. All of the following operations were carried out at 4° C. 500 g frozen tissue were then homogenised with a mortar and pestle in 1 liter 0.1 M tricine/NaOH, pH 7.5 containing 15 mM thioglycolic acid. Cell debris was removed by centrifugation at 10,000× g, 30 min. The supernatant was filtered through four layers of cheesecloth and the microsomes were then isolated by MgCl2 precipitation according to (19). […] Microsomal protein was solubilized as follows. 2 mg CHAPS (3[(3-cholamidopropyl)dimethyl-ammonio]-1-propane-sulfonate, Roth) per mg microsomal protein was prepared in 1 mL of 0.1 M tricine/NaOH, pH 7.5 containing 15 mM thioglycolic acid. This solution was added dropwise to the microsomal suspension. 2% (v/v) Emulgen 911 (Kao Corporation) was then added and the solution slowly stirred for 1 h. Membrane fragments were removed by centrifugation at 105,000× g for 60 min. The total activity in the solubilized microsomes was assigned the value 100%. The solubilized cytochrome P-450 reductase was then purified to electrophoretic homogeneity according to (20).
Yeast microsomes were isolated according to either (22) or (23) and the presence cytochrome P-450 reductase was measured as the ability to reduce cytochrome c (24).

Where two headings read alike, the source gives them in different places.

For the compound “purified reductase: cytochrome P-450 reductase purified from P. somniferum cell suspension cultures”, the “optimal molarity range of the Tricine buffer” value was 250 to 500 mM. For the setting “at 100 mM Tricine”, the “activity declined to” value worked out at 21%. Moreover, the “activity declined to” value (at 1 M Tricine) is reported as 77%. The compound further returned a pH optimum (in 0.5 M Tricine buffer) of 8.0.

Consider cytochrome c [reference compound], for which the Km is 8.3 µM.

Regarding `NC(=O)C1=CN([C@@H]2O[C@H](COP(=O)(O)OP(=O)(O)OC[C@H]3O[C@@H](n4cnc5c(N)ncnc54)[C@H](OP(=O)(O)O)[C@@H]3O)[C@@H](O)[C@H]2O)C=CC1` [NADPH, reference compound], the Km stood at 4.2 µM.

Usually Km stands for the substrate concentration at which the rate is half of its maximum.

For the origin of these results see patent US7037674B1, “Cytochrome P450 reductases from poppy plants” (priority 1997, dated 2006).
